From the supplement of paper PMC9170038

Test system: MS2 coat protein
Test: apparent KD of MS2 coat protein; higher = weaker reporter binding
Details: Eterna round: R107
Procedure, shortened: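 Designed RNA switches were transcribed on-chip from Illumina sequencing clusters. They were then titrated with SNAP-549-labelled MS2 coat protein (twofold steps, 0.7 or 1.5 nM to 3 µM; 0.8–1.5 h to 10–20 min per step) in 100 mM Tris-HCl pH 7.5, 80 mM KCl, 4 mM MgCl2, without or with constant ligand. Apparent KD is the per-design median of normalised cluster binding-curve fits.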

[1] = input ligand: theophylline 20 uM
[2] = input ligand: theophylline 2 mM
[3] = input ligand: tryptophan 2.4 mM

Row | Sequence | apparent KD of MS2 coat protein (input ligand: arginine 13.2 mM) [µM] | apparent KD of MS2 coat protein (input ligand: none) [µM] | apparent KD of MS2 coat protein [1] [µM] | apparent KD of MS2 coat protein [2] [µM] | apparent KD of MS2 coat protein [3] [µM]
1 | AUACAUGAGGAUCACCCAUGUCUUACGGAAGGAGCGAUCAAGAGAUCAGGUAGGUCGCCGUACAUGAGGAUCACCCAUGUAGGCG [EAA NP+V+V2 #9 DOUBLE] | 0.0195 | 0.0323 | 0.0334 | 0.0357 | 0.0313
2 | CUUAUACAUGAGGAUCACCCAUGUGGUGAUACCAGCCACGAUCAAGGCCCUUGGCAGCACAAAGGGAAUAAUAUGAUUACAAAAC [theeternabot_sameState_MS2_Theo_A_6] | 0.117 | – | 0.566 | – | 0.489
3 | UUAAUCAUGGAUGAAAACAUUUAUGCAGAAGGAGCGUGAUAAAACACAGGUAGGUCGCUGAAGGGAACAUGAGGAUCACCCAUGU [AstrosSSArgA#17] | 0.0359 | 0.0651 | 0.0745 | 0.0695 | 0.0413
4 | GCACCAGGUACGGAUACCAGACUCUGCCGAUUGGGUGAACAUGAGGAUCACCCAUGUUAGGUCCCUUGGCAGCCGUACCUGGUGC [#18 Exclusion-TheophyllineB] | 0.0264 | – | 0.0735 | – | 0.0303
5 | ACAUGAGGAUCACCCAUGUCACUCGUGUUCCGAGGACCGGUACGGCCGCCACUCGGUCCUCGCGAGGAUGGUCAAAGACUAUCCA [Omei Trp A SS B v2] | 0.0371 | 0.0752 | 0.0668 | 0.0714 | 0.0486
6 | GGAUAGGACACGGCCGCCACUAGCUAGGAUACUAGCAACAUUUCCUCACAAGAGGAUCACCCUUGUAGGACCGGGUGUCCUAUCG | 0.0849 | 0.0937 | 0.115 | 0.118 | 0.139
7 | CGCAACCCUAAGGGAUUGUGGUUAUUAGAUACCAGUAUGAUGCAAUACCCUUGGCAGCUAAUACAUGAGGAUCACCCAUGUUGCG [Th A Ex t2] | 0.0136 | – | 0.0202 | – | 0.0168
8 | AAUCGUAAGGCGGCCGCCACUACACAUGAGGAUCACCCAUGUCUCGCGGGCUUGCGUUGGGAUAGUAGGACCGGGCCAGUAAUAA [Exclusion - Tryptophan B (Freestyle 13)] | 0.0171 | 0.0262 | 0.0337 | 0.0283 | 0.0251
9 | CUUCUGAAAGCAAUGGGAUCUGUUAUUGAUACCAGCAUCUGAUUUUGCCCUUGGCAGCAAGAAACAUGAGGAUCACCCAUGUGGC [theeternabot_exclusion_MS2_Theo_A_19] | 0.0214 | – | 0.0231 | – | 0.021
10 | CCGGCCGCAUGAAGGAGCGCACAGCGCUCGCACAUGAGGAUCACCCAUGUAAAUGGGUGCGUGCAGGUAGGUCGCAUGCAGGCAA [Lesobete] | 0.133 | 0.313 | 0.544 | 0.671 | 0.472
11 | CCAUAGCUAGGAAGGAGCGCAUACUUCACAUGAGGAUCACCCAUGUCGAGACGUGAGUCAGUGCAGGUAGGUCGCCUAGCUAUGG [Same State - Arginine B (Freestyle 29)] | 0.0181 | 0.0186 | 0.0242 | 0.0255 | 0.0206
12 | UUUAAAAUAACAGAUACCAGCGUGUUAUAAAACAUGAGGAUCACCCAUGUAGUGAUCAAGCGCCCUUGGCAGCUGGUAUUUUAGG [7.E] | 0.186 | – | 0.161 | – | 0.132
13 | AGAGUCAGACAAAAGUCUGGCUCAGCCGAAGGAGCGUCCGAAAGGACAGGUAGGUCGCGGUUACUUGAGGAUCACCCAAGUUCCU [ArgAS 26 #OpenEnded #AlternativeMS2] | 0.069 | 0.163 | 0.151 | 0.177 | 0.144
14 | GGAGUAGGAAACUAUUCCAAUCCUCGUGAACGAGGACCGGUACGGCCGCCACUCGAUAAUUAAUAACAUGAGGAUCACCCAUGUA [Ex Tryptophan A 21] | 0.0366 | – | 0.0804 | 0.089 | –
15 | GUAGGUCUCAUGGGUGGACCUACACUGGAAGGAGCGAGCGAAAGCUCAGGUAGGUCGCCAGAAACAUGAGGAUCACCCAUGUAAU [(A)''-(M)'-(A)'-(Arg1)-(Arg2)-(M1)-(M2)_Design1] | 0.0723 | 0.36 | 0.144 | 0.288 | 0.32
16 | AUAAUAUAGACGGCCGCCACUAUAAACAUGAGGAACAUGAGGAUCACCCAUGUAUGAGGAUCACCUAGGACCGGGUCAUAUAUUA [AstrosExyTryB#2] | 0.0393 | – | 0.0798 | 0.0624 | –
17 | UCGCCCGGGUCGGCCGCCACUGCGGUGAUGUGACAUGAGGAUCACCCAUGUUGUCAUGUGGCACAUAGGACCGGGACCCGGGCGA [Exclusion - Tryptophan B Attempt #4 (HarryS)] | 0.0232 | – | 0.0453 | 0.0403 | –
18 | UGAUUGAACGGAAGGAGCGUGAAGAGAGAGAAACAUGAGGAUCACCCAUGUAGAGAGAGAUCACAGGUAGGUCGCCGAGAGAUUG [11.C] | 0.0178 | 0.015 | 0.0208 | 0.021 | 0.0171
19 | GGUGGGACUUGUGAUACCAGCCCAGUUCUAAUCGAACUGCACAUGAGGAUCACCCAUGUCGGCCCUUGGCAGCAUGAGUAUUUAU [Esceesor] | 0.146 | – | 0.16 | – | 0.326

Row | Sequence | apparent KD of MS2 coat protein (input ligand: arginine 13.2 mM) [µM] | apparent KD of MS2 coat protein (input ligand: none) [µM] | apparent KD of MS2 coat protein [1] [µM] | apparent KD of MS2 coat protein [2] [µM] | apparent KD of MS2 coat protein [3] [µM]
20 | CGUAAACAUGAGGAUCACCCAUGUGAUGAUACCAGCACGAUUAACUGCCCUUGGCAGCAUGUAUUGUACGACUUAUUGCCCAUCG [theeternabot_sameState_MS2_Theo_A_15] | 0.0154 | – | 0.0233 | – | 0.0135
21 | UCAUGCAGGUCGGCCGCCACUACACACAUGAGGAUCACCCAUGUAGUUACUGGGUGAAGUGGCAGUAGGACCGGGACCUGCACAU [Brourdmod16] | 0.253 | 0.607 | 0.369 | 0.452 | 0.46
22 | GGGUAAGAUCCGGAUACCAGCGAACAUGAGGAUCACCCAUGUGACCUAAGAUAGGCUAAACGCCCUUGGCAGCCGAAAUAGCGUU [Same State Theophylline B GF 5] | 0.0249 | 0.0364 | 0.043 | 0.0382 | 0.0395
23 | CCUAUGCAGUCGGCCGCCACUGAUAAAAUUAUUUUUACCUCAGAAACAUGAGGAUCACCCAUGUACAGGACCGGGACUGUAUAGG [Ex Tryptophan B 17] | 0.0242 | – | 0.0201 | 0.0228 | –
24 | ACAUGAGGAUCACCCAUGUUCCUCAUUGAUACCAGUGAAUUUAGACGCCCUUGGCAGCGAGUUUUUUUAUAAGAUUUUUUUUUUU [6.I] | 0.239 | – | 0.839 | – | 0.916
25 | UGUAUGGACUGAAGGAGCGGGUUGAUAAUCUGAGGAUCACCCAGGUAAAAGGCGAAAGCCACCCAGGUAGGUCGCAGUCCAUACU | 0.0238 | 0.034 | 0.0389 | 0.0418 | 0.0364
26 | GGUGGACUUUCGGCCGCCACUGAGAGAGUCGUGUGAACAUGAGGAUCACCCAUGUAAUAUAUAUACAGGACCGGGAGGGUUGUCC [4.O] | 0.0206 | – | 0.0287 | 0.025 | –
27 | ACCCUAGCGAUCGCUCGCUAGGGUGCGGAUACCAGCGAGGUCCAUCGCCCUUGGCAGCCGAACAUGAGGAUCACCCAUGUCGGUA [#1 Same State - Theophylline A Attempt #19 (HarryS)] | 0.0101 | – | 0.0116 | – | 0.0104
28 | AGACUGUAAAGUCUACCGGUCAACAAUAAUCGAGGACCGGUACGGCCGCCACUCGAUGUGAUAUACACAUGAGGAUCACCCAUGU [Tryptophan A 16] | 0.0172 | – | 0.0226 | 0.0197 | –
29 | ACAUGAGGAUCACCCAUGUACAUAAGGGAAGGAGCGCGGUGAAACGCAGGUAGGUCGCCCAUAAUAUCUAACAUUAAAUUCAUGU [LeftA3] | 0.0168 | 0.0166 | 0.0279 | 0.02 | 0.0188
30 | AAACGCCACGGAAGGAGCGACAUGAGGAUCACCCAUGUAGAUUUGGCGGAUGCACCCUCCUGUCAGGUAGGUCGCCGUGCGAUAA [XArg-B25] | 0.0339 | 0.0608 | 0.109 | 0.089 | 0.0866
31 | UGUUAUUUCCGAAGGAGCGGGAUACAUGAGGAUCACCCAUGUACAUGAGGAUCAACAUGAACCCAGGUAGGUCGCGGAUUUUGUC [Exclusion Arginine B 3] | 0.0341 | 0.405 | 0.3 | 0.379 | 0.228
32 | UUUACAUGAGGAUCACCCAUGUGCCAUGAUACCAGACAUGAAAAUGUCCCUUGGCAGCAUGAAAGAUCCACGUCGGAAACGACGG [Krpole] | 0.0722 | – | 0.248 | – | 0.113
33 | UCGGGCAGAGCGGCCGCCACUGUUUGGCAUGCGGAUGAAGGAACAUGAGGAUCACCCAUGUAGAUUAGGACCGGGCUAGCGGAGA [sscsmullin] | 0.0121 | 0.0172 | 0.0421 | 0.0184 | 0.0163
34 | AUGCAUAGCCGAAGGAGCGCAGUAGGAUGACAUGAGGAUCACCCAUGUGUGUGAUGUGGAUUGCAGGUAGGUCGCGGAGUGGUAU [Exclusion - Arginine B (Freestyle 5)] | 0.047 | 0.119 | 0.128 | 0.119 | 0.058
35 | GGACUAACCAGAAGGAGCGGCACGCAGAAACUGCAAAAUCCUCCACACGAGGAUCACCCGUGUCAGGUAGGUCGCUGGUUAGUCG | 0.0458 | 0.0486 | 0.055 | 0.0525 | 0.0484
36 | GGAUUACGAAAGUAGUCCUCAAGUUCGAGACGAGGACCGGUACGGCCGCCACUCGAACAUGAGGAUCACCCAUGUAGCGAAAGCU [Tryptophan A 22] | 0.0866 | 0.195 | 0.382 | 0.425 | 0.181
37 | ACCUGCGUUUGUUUCUUUCUGACGCAGGUUCGAGGACCGGUACGGCCGCCACUCGGACAUGAGGAUCACCCAUGUUUGAAAUGGG [#01 Exclusion Tryptophan A] | 0.0904 | – | 0.248 | 0.313 | –
38 | CUAUUUAUAGCGGCCGCCACUUACUCAUGAGGUAACAACAUGAGGAUCACCCAUGUUUGAGGAUCAAGGACCGGGCUAUGGAUAG [AstrosSSTryB#12] | 0.0245 | – | 0.037 | 0.0315 | –
